For 1 substance, Kd results are on record in paper PMC9631991.

In the experiment the target is biotinylated pro-LC3B (residues 1-125) (human) (UniProt Q9GZQ8). Briefly: SPR; biotinylated LC3B constructs immobilised on NeutrAvidin-coated CM5 chips; ATG4b proteins flowed over, 0.2 nM~20 uM; 1X PBS, 0.5 mM TCEP, 0.05% Tween 20, 20 °C; Biacore 4000; 1:1 binding model. For orientation: SPR reads the build-up and loss of mass on a sensor chip optically.

The Kd is the equilibrium constant for the complex coming apart. A low value points to higher affinity.

In turn, “ATG4b WT (full-length ATG4b) (from UniProt Q9Y4P1 1-393) (enzyme)” had a Kd of 321 nM.
